Entries after “also recorded” stand apart in the source; their conditions may differ. Where two headings read alike, the source gives them in different places.
Key:
CD20 receptor on B-cells = test: Nonclinical ADCC activity comparison; type: cell-based; conditions: ofatumumab compared to ocrelizumab and rituximab
[1] = test system: multiple sclerosis patients; test: Infections in relation to IgM/IgG levels <LLN vs >=LLN in ofatumumab MS studies
Source text: (§3) Serum IgG/IgM levels were monitored at baseline, Week (W) 4, W12 and every 12 weeks, see FIG. 1.

MS patients [2] = conditions: cited from earlier work
MS patients [3] = test: General safety in MS clinical trials with ofatumumab (neutrophils, PML, hepatitis B, malignancy, cytopenia); conditions: human, in vivo
IgM = test: Long term study (Example 5), IgM levels; type: in vivo, human; conditions: OMB long-term group, FIGS. 16 and 17
Source text: (§1) 2”, preferably version 13.0 dated 2018-11.
(§2) Patients were subjected to a long term treatment.

[4] = test system: multiple sclerosis patients; conditions: in vivo
Source text: as §3

serum IgG [5] = test: Serum IgG levels in ASCLEPIOS I/II (Pool C2)
Experimental: (§4) In the present application serum Ig levels can preferably be determined by immunoturbidimetry. Preferably a Roche cobas® Analyzer was used, especially module c of the cobas® analyser. In a preferred embodiment Ig levels can be determined by using a cobas® c 311 analyzer. It is further preferred that IgG measurements are carried out as described in the cobas® leaflet “IGG-2 Tina-quant IgG Gen. 2”, preferably version 11.0 dated 2016-02 and IgM measurements as described in the leaflet “IGM-2 Tina-quant IgM Gen. 2”, preferably version 13.0 dated 2018-11.
(§5) Serum samples were preferably kept at 2-8° C. before measurement.
(§6) Patients were randomised (1:1) to receive either ofatumumab 20 mg sc injections every 4 weeks (after an initial loading regimen of 20 mg sc doses on Days 1, 7 and 14) or teriflunomide 14 mg orally once daily, for up to 30 months.
as §3

MS patients [6] = conditions: human, in vivo
serum IgM = test: Serum IgM levels in ASCLEPIOS I/II (Pool C2); type: in vivo, human
Experimental: In the present application serum Ig levels can preferably be determined by immunoturbidimetry. Preferably a Roche cobas® Analyzer was used, especially module c of the cobas® analyser.
as §5
ASCLEPIOS I and II are double-blind, double-dummy, active comparator-controlled, parallel-group, innovative, adaptive design, multicentre trials. Patients were randomised (1:1) to receive either ofatumumab 20 mg sc injections every 4 weeks (after an initial loading regimen of 20 mg sc doses on Days 1, 7 and 14) or teriflunomide 14 mg orally once daily, for up to 30 months.

COVID-19 = conditions: for COVID-19 symptoms duration / Outcome: serious case
Experimental: Confirmed or suspected cases of COVID-19 infection in patients receiving ofatumumab in the open-label extension study ALITHIOS were reviewed (data cutoff: Dec. 21, 2020)
COVID-19 cases were classified as confirmed if SARS-CoV2 positive test results were available, or patient was reported to be diagnosed with COVID-19
Suspected cases of COVID-19 were classified as suspected if without a positive SARS-CoV2 test or definitive diagnosis
The following COVID-19 case characteristics were assessed:
*Serious criteria is based on the regulatory reporting definition established by ICH, for the purposes of regulatory reporting obligations, and consists of fatal, life-threatening, hospitalization and medically significant

[7] = in vivo, sc, 20 mg
B cells = test: B-cell repletion after study treatment discontinuation (Pool C2, OMS115102); type: in vivo, human; conditions: study OMS115102, approximately 48 weeks post study
CD19+ B-cells = test: CD19+ B-cell depletion in ASCLEPIOS; type: in vivo, human
Experimental: ASCLEPIOS I and II are double-blind, double-dummy, active comparator-controlled, parallel-group, innovative, adaptive design, multicentre trials. Patients were randomised (1:1) to receive either ofatumumab 20 mg sc injections every 4 weeks (after an initial loading regimen of 20 mg sc doses on Days 1, 7 and 14) or teriflunomide 14 mg orally once daily, for up to 30 months. […] Patients aged 18-55 years with an Expanded Disability Status Scale (EDSS) score (according to Kurtzke, Neurology. 1983, Nov; 33(11): 1444-52) of 0-5.5 at screening who experienced ≥1 relapse in the past year or ≥2 relapses in the past 2 years or a positive gadolinium-enhancing (Gd+) MRI scan during the year before randomisation were included.

IgG = test: Long term study (Example 5), IgG levels; type: in vivo, human; conditions: OMB long-term group, FIG. 14
Source text: as §1, §2

IgG levels = test: Metanalysis of Example 1 versus Derfuss et al. (pooled OPERA), IgG levels; type: in vivo, human
Source text: In a metanalysis, the results of Example 1 and the results obtained by Derfuss et al. were compared.

CD20 receptor = target: T1, CD20 receptor (Homo sapiens, UniProt P11836); test: B-cell binding studies, off-rate; conditions: in comparison to rituximab
T1 construct: endogenous in cells
T1 sequence (P11836 1-297): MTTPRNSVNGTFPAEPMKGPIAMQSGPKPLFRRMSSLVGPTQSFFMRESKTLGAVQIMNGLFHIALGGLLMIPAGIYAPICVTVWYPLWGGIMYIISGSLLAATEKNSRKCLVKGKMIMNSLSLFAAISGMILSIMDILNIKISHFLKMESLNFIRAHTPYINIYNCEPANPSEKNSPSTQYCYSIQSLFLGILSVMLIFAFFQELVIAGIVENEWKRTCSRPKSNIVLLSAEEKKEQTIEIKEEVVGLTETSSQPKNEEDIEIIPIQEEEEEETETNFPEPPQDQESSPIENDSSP

serum IgG [8] = conditions: in vivo
Experimental: as §4, §5, §6, §3

ofatumumab: recombinant human monoclonal immunoglobulin G1 (IgG1) antibody that binds to human CD20
ADCC activity (CD20 receptor on B-cells): No relevant difference | Number of patients with at least 1 infection AE by Grade: Grade 4 ([1]; IgG <LLN, N = 134): 0 n | infection AE by outcome: Fatal ([1]; IgG <LLN, N = 134): 0 n | infection AE by outcome: Fatal ([1]; IgM <LLN, N = 167): 0 n | infection AE by outcome: Fatal ([1]; IgM ≥LLN, N = 777): 0 n | suppression of gadolinium (Gd) T1 lesions when compared to Aubagio (MS patients [2]; ASCLEPIOS I/II): highly significant suppression | annualized relapse rate (ARR) (MS patients [2]; ASCLEPIOS I): 0.11 | reduction in annualized relapse rate (ARR) compared to Aubagio (teriflunomide) (MS patients [2]; ASCLEPIOS I): 50.5% | annualized relapse rate (ARR) (MS patients [2]; ASCLEPIOS II): 0.10 | reduction in annualized relapse rate (ARR) compared to Aubagio (teriflunomide) (MS patients [2]; ASCLEPIOS II): 58.5% | relative risk reduction in 3-month confirmed disability progression (CDP) versus Aubagio (MS patients [2]; pre-specified pooled analyses): 34.4% | relative risk reduction in 6-month CDP versus Aubagio (MS patients [2]; pre-specified pooled analyses): 32.5% | cytopenia during therapy (MS patients [3]): No cytopenia | IgM levels with longer duration (IgM): levels remained above the lower limit of normal | Infections observed after the first drop of IgG<LLN [4]: 45.5% | Infections observed after the first drop of IgG<LLN, number of patients [4]: 61 | Number of patients with at least 1 infection AE by Grade: Grade 4 [4]: 0 n | infection AE by outcome: Recovered/resolved [4]: 0 n | infection AE by outcome: Recovered/resolved with sequelae [4]: 0 n | infection AE by outcome: Recovering/resolving [4]: 0 n | patients who received immunoglobulin substitution therapy for decrease in IgG/M [4]: none of the patients | patients who reported an infection post study drug discontinuation [4]: six of 32 | serious opportunistic infections [4]: no cases | recovery of IgG levels after reduction until Week 36 (serum IgG [5]; ASCLEPIOS I and II, FIG. 7): recovered up to baseline levels by W72 | change in mean serum IgG value from baseline (serum IgG [5]; Week 96): +0.249 g/L | patients with IgG levels 20% below the LLN (serum IgG [5]; Week 96 (Week-96 completers)): no ofatumumab patients | increase in mean serum IgG value from baseline (serum IgG [5]; Week 96, ASCLEPIOS studies): 2.2% | proportion of patients with IgG levels below the LLN versus teriflunomide (serum IgG [5]; any time post-baseline, FIG. 8): lower proportion | patients with IgG levels on or above the LLN (serum IgG [5]; any time post-baseline, FIG. 9): > 85% | proportion of patients with IgG below LLN (serum IgG [5]; anytime during post baseline visit): 14.2% | turning point at which the trend of decreasing IgG levels reverses (serum IgG [5]; in vivo): 36 week | mean serum IgG over time compared to baseline (serum IgG [5]; over 96 weeks treatment): no decrease in mean values; also recorded: No decrease in mean serum IgG | decrease of IgG levels (serum IgG [5]; week 72 and thereafter): no decrease | cases of PML or Hepatitis B reactivation or serious potential OI (MS patients [6]): no cases | incidence of malignancy (MS patients [6]): no increased incidence | mean and median values of neutrophil count (MS patients [6]): remained within the normal ranges | risk of neutropenia (MS patients [6]): No risk of neutropenia | IgM decline with treatment (serum IgM; MS studies): some level of IgM decline but the majority of the patients remained above LLN | change in mean IgM (serum IgM; Week 96 completers, Pool C2): -0.537 g/L | decline in mean IgM (serum IgM; Week 96 completers, Pool C2): 38.8% | proportion of patients with IgM levels below LLN and 10% below the LLN versus teriflunomide (serum IgM; any time post baseline and at Week 96, FIG. 8): higher proportion | patients with IgM levels on or above the LLN (serum IgM; any time post-baseline, FIG. 9): 82-89% | change in mean IgM value (serum IgM; baseline to Week 48, Pool C2): -0.420 g/L | decrease in mean IgM value (serum IgM; baseline to Week 48, Pool C2): 30.9% | mean serum IgM levels versus reference range (serum IgM; over time, reference range 0.40-2.30 g/L): remained well within the reference ranges | COVID-19 outcome: Ongoing (COVID-19; Non-serious (n = 29)): 0 | COVID-19 outcome: Recovered (COVID-19; Non-serious (n = 29)): 29 | COVID-19 outcome: Recovering (COVID-19; Non-serious (n = 29)): 0 | COVID-19 outcome: Recovered (COVID-19; Serious (n = 6)): 5 | cases with no change in ofatumumab treatment required (COVID-19; confirmed COVID-19 infection): 21 cases | cases with treatment temporarily interrupted due to confirmed COVID-19 infection (COVID-19; human, in vivo): 5 cases | cases with complete recovery (COVID-19; of 35 confirmed cases): 34 cases | confirmed COVID-19 cases, Non-serious (COVID-19; of 35 confirmed cases): Non-serious (n = 29) | COVID-19 symptoms duration (COVID-19; Patient ID 5409018): ~50 days | Outcome (COVID-19; Patient ID 5409018): Complete | COVID-19 symptoms duration (COVID-19; Patient ID 5608014): 18 days | Outcome (COVID-19; Patient ID 5608014): Complete | COVID-19 symptoms duration (COVID-19; Patient ID 5800004): ~30 days | Outcome (COVID-19; Patient ID 5800004): Fatal | COVID-19 symptoms duration (COVID-19; Patient ID 5800043): 11 days | Outcome (COVID-19; Patient ID 5800043): Complete | COVID-19 symptoms duration (COVID-19; Patient ID 5801015): 15 days | Outcome (COVID-19; Patient ID 5801015): Complete | COVID-19 symptoms duration (COVID-19; Patient ID 5806001): 10 days | Outcome (COVID-19; Patient ID 5806001): Complete | half-life at steady state [7]: approximately 16 days | B-cell repletion (B cells): B cells for all subjects were repleted, with the exception of one subject | patients with CD19+ B-cells below LLN (CD19+ B-cells; Week 1): 77.0% | patients with CD19+ B-cells below LLN, n/M (CD19+ B-cells; Week 1): 338/439 | patients with CD19+ B-cells below LLN (CD19+ B-cells; Week 1, listed as OMB): (77.0) % | patients with CD19+ B-cells below LLN (CD19+ B-cells; Week 2): 95.0% | patients with CD19+ B-cells below LLN, n/M (CD19+ B-cells; Week 2): 420/442 | patients with CD19+ B-cells below LLN (CD19+ B-cells; Week 2, listed as OMB): (95.0) % | patients with CD19+ B-cells below LLN (CD19+ B-cells; Week 4): (97.8) % | patients with CD19+ B-cells below LLN, n/M (CD19+ B-cells; Week 4): 440/450 | patients with CD19+ B-cells below LLN (CD19+ B-cells; Week 12): 99.3% | patients with CD19+ B-cells below LLN, n/M (CD19+ B-cells; Week 12): 440/443 | patients with CD19+ B-cells below LLN (CD19+ B-cells; Week 12, listed as OMB): (99.3) % | patients with CD19+ B-cells below LLN (CD19+ B-cells; Week 24): (98.4) % | patients with CD19+ B-cells below LLN, n/M (CD19+ B-cells; Week 24): 422/429 | patients with CD19+ B-cells below LLN (CD19+ B-cells; Week 36): (98.8) % | patients with CD19+ B-cells below LLN, n/M (CD19+ B-cells; Week 36): 415/420 | patients with CD19+ B-cells below LLN (CD19+ B-cells; Week 48): (98.3) % | patients with CD19+ B-cells below LLN, n/M (CD19+ B-cells; Week 48): 397/404 | patients with CD19+ B-cells below LLN (CD19+ B-cells; Week 60): (96.7) % | patients with CD19+ B-cells below LLN, n/M (CD19+ B-cells; Week 60): 385/398 | patients with CD19+ B-cells below LLN (CD19+ B-cells; Week 72): (98.2) % | patients with CD19+ B-cells below LLN, n/M (CD19+ B-cells; Week 72): 379/386 | patients with CD19+ B-cells below LLN (CD19+ B-cells; Week 84): (98.9) % | patients with CD19+ B-cells below LLN, n/M (CD19+ B-cells; Week 84): 260/263 | patients with CD19+ B-cells below LLN (CD19+ B-cells; Week 96): (99.4) % | patients with CD19+ B-cells below LLN, n/M (CD19+ B-cells; Week 96): 161/162 | patients with CD19+ B-cells below LLN (CD19+ B-cells; Week 108): (97.9) % | patients with CD19+ B-cells below LLN, n/M (CD19+ B-cells; Week 108): 93/95 | patients with CD19+ B-cells below LLN (CD19+ B-cells; Week 120): (100) % | patients with CD19+ B-cells below LLN, n/M (CD19+ B-cells; Week 120): 28/28 | median CD19+ B-cell count (CD19+ B-cells; from Week 2 onwards): zero | patients in whom CD19+ B-cell depletion was maintained (CD19+ B-cells; throughout the treatment period): > 96% | IgG levels over long-term follow-up (IgG): stable over the long-term follow-up of >4 years | increase of IgG levels (IgG levels; after two years (96 weeks)): about 3% | effect on IgG levels on the long term (IgG levels; in vivo): sustains and even increases IgG levels | off-rate (dissociation rate of the antibody from the CD20 receptor) (CD20 receptor): lower off-rate | patients with IgG below LLN, n/N (serum IgG [8]): 134/944

From patent US20230151106A1, “OFATUMUMAB FOR TREATING MS WHILE MAINTAINING SERUM IgG” (NOVARTIS AG, priority 2020, published 2023)
